In general, stoichiometry N refers to the number of molecules, sites or subunits per partner or assembly.

Sequences and labels used below:
B4: Bacillus subtilis AMP-forming acetyl-CoA synthetase AcsA (enzyme, UniProt P39062 1-572, looked up)
chain: MNLKALPAIEGDHNLKNYEETYRHFDWAEAEKHFSWHETGKLNAAYEAIDRHAESFRKNKVALYYKDAKRDEKYTFKEMKEESNRAGNVLRRYGNVEKGDRVFIFMPRSPELYFIMLGAIKIGAIAGPLFEAFMEGAVKDRLENSEAKVVVTTPELLERIPVDKLPHLQHVFVVGGEAESGTNIINYDEAAKQESTRLDIEWMDKKDGFLLHYTSGSTGTPKGVLHVHEAMIQQYQTGKWVLDLKEEDIYWCTADPGWVTGTVYGIFAPWLNGATNVIVGGRFSPESWYGTIEQLGVNVWYSAPTAFRMLMGAGDEMAAKYDLTSLRHVLSVGEPLNPEVIRWGHKVFNKRIHDTWWMTETGSQLICNYPCMDIKPGSMGKPIPGVEAAIVDNQGNELPPYRMGNLAIKKGWPSMMHTIWNNPEKYESYFMPGGWYVSGDSAYMDEEGYFWFQGRVDDVIMTSGERVGPFEVESKLVEHPAIAEAGVIGKPDPVRGEIIKAFIALREGFEPSDKLKEEIRLFVKQGLAAHAAPREIEFKDKLPKTRSGKIMRRVLKAWELNLPAGDLSTMED
notes: AMP-forming acetyl-CoA synthetase AcsA, Bacillus subtilis, UniProt P39062; synthetic gene codon optimized for E. coli; also called AcsA wildtype; non-acetylated AcsA; source: E. coli BL21 (DE3), pET45b(+), purified (HisTrap FF, Ni2+)

The target of one data set is T1, AcsA•AcuA complex (Bacillus subtilis, UniProt P39065).
T1 construct: both N-terminally His6-tagged, E. coli BL21 (DE3); AcuA 25,484 g/mol, monomer alone; apparent heterotetramer; AcsA K549 is the acetyl acceptor; with Acetyl-coenzyme A synthetase (AMP-forming)
T1 sequence (P39065 whole entry, one chain of several): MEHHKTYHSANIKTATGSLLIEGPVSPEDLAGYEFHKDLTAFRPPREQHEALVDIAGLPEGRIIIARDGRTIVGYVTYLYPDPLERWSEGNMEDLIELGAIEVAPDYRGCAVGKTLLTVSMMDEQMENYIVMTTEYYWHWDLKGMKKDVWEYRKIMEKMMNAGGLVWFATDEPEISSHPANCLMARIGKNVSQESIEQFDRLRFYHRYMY
Put plainly: lysine acetylation of AcsA K549, anti-AcK immunoblot and SEC. The class given is biochemical. In general terms: In western blotting, separated proteins are transferred to a membrane and probed.

In data set [1] the target is B4. Briefly: SEC; analytical SEC of equimolar AcsA and AcuA (wild type or mutants), incubated 30 min at room temperature, Superdex 200 10/300 GL, 50 mM Tris/HCl pH 8, 50 mM KCl, 2 mM β-mercaptoethanol; 100 µl of 50–100 µM; without ligand or with a tenfold molar excess of CoA or AcP alone. The note with it: both partners purified. Background: In gel filtration, larger molecules generally elute earlier.

Data set [2] concerns the molecule itself. Put plainly: SEC; analytical SEC of the single proteins, Superdex 200 10/300 GL, 50 mM Tris/HCl pH 8, 50 mM KCl, 2 mM β-mercaptoethanol; 100 µl of 50–100 µM injected; MW from a calibration curve.
Data set [3] concerns the molecule itself. Briefly: SEC; analytical SEC of the preformed equimolar AcsA•AcuA complex pretreated with a tenfold molar excess of acetyl-CoA (excess also varied), 30 min at room temperature; fractions checked by anti-AcK immunoblot and Ponceau S.

Take `CC(=O)OP(=O)(O)O` [AcP]: on AcsA•AcuA complex (intrinsic phosphotransacetylase activity, AcP with CoA as needed co-substrate, 37 °C), the “lysine acetylation of AcsA K549, anti-AcK immunoblot and SEC” value is “upon addition of CoA and AcP, AcsA was strongly acetylated”.

Take `CC(=O)SCCNC(=O)CCNC(=O)[C@H](O)C(C)(C)COP(=O)(O)OP(=O)(O)OC[C@H]1O[C@@H](n2cnc3c(N)ncnc32)[C@H](O)[C@@H]1OP(=O)(O)O` [acetyl-CoA]: the “lysine acetylation of AcsA K549, anti-AcK immunoblot and SEC” value on AcsA•AcuA complex (200 µM acetyl-CoA, AcuA 5 µM, AcsA 20 µM, acetyltransferase activity) was “addition of acetyl-CoA to AcsA and AcuA resulted in a strong acetylation of AcsA”.

B1: AcuA W140A (enzyme, Bacillus subtilis, UniProt P39065 1-210, looked up)
chain: MEHHKTYHSANIKTATGSLLIEGPVSPEDLAGYEFHKDLTAFRPPREQHEALVDIAGLPEGRIIIARDGRTIVGYVTYLYPDPLERWSEGNMEDLIELGAIEVAPDYRGCAVGKTLLTVSMMDEQMENYIVMTTEYYWHADLKGMKKDVWEYRKIMEKMMNAGGLVWFATDEPEISSHPANCLMARIGKNVSQESIEQFDRLRFYHRYMY
notes: AcuA, Bacillus subtilis, UniProt P39065, with W140A
For B1, the binding result in data set [1] was “binds”.

B2: AcuA W140F (enzyme, Bacillus subtilis, UniProt P39065 1-210, looked up)
chain: MEHHKTYHSANIKTATGSLLIEGPVSPEDLAGYEFHKDLTAFRPPREQHEALVDIAGLPEGRIIIARDGRTIVGYVTYLYPDPLERWSEGNMEDLIELGAIEVAPDYRGCAVGKTLLTVSMMDEQMENYIVMTTEYYWHFDLKGMKKDVWEYRKIMEKMMNAGGLVWFATDEPEISSHPANCLMARIGKNVSQESIEQFDRLRFYHRYMY
notes: AcuA, Bacillus subtilis, UniProt P39065, with W140F
As to B2, the binding result in data set [1] is listed as “binds”.

B3: AcuA E97Q/E135Q (enzyme, Bacillus subtilis, UniProt P39065 1-210, looked up)
chain: MEHHKTYHSANIKTATGSLLIEGPVSPEDLAGYEFHKDLTAFRPPREQHEALVDIAGLPEGRIIIARDGRTIVGYVTYLYPDPLERWSEGNMEDLIQLGAIEVAPDYRGCAVGKTLLTVSMMDEQMENYIVMTTQYYWHWDLKGMKKDVWEYRKIMEKMMNAGGLVWFATDEPEISSHPANCLMARIGKNVSQESIEQFDRLRFYHRYMY
notes: AcuA, Bacillus subtilis, UniProt P39065, with E97Q and E135Q; also called double mutant AcuA E97Q/E135Q
Take B3: the binding result in data set [1] is “binds”.

Turning to B4, the “stoichiometry N” value in data set [2] is 2.

B5: K549-acetylated Bacillus subtilis AcsA (enzyme, UniProt P39062 1-572, looked up)
chain: MNLKALPAIEGDHNLKNYEETYRHFDWAEAEKHFSWHETGKLNAAYEAIDRHAESFRKNKVALYYKDAKRDEKYTFKEMKEESNRAGNVLRRYGNVEKGDRVFIFMPRSPELYFIMLGAIKIGAIAGPLFEAFMEGAVKDRLENSEAKVVVTTPELLERIPVDKLPHLQHVFVVGGEAESGTNIINYDEAAKQESTRLDIEWMDKKDGFLLHYTSGSTGTPKGVLHVHEAMIQQYQTGKWVLDLKEEDIYWCTADPGWVTGTVYGIFAPWLNGATNVIVGGRFSPESWYGTIEQLGVNVWYSAPTAFRMLMGAGDEMAAKYDLTSLRHVLSVGEPLNPEVIRWGHKVFNKRIHDTWWMTETGSQLICNYPCMDIKPGSMGKPIPGVEAAIVDNQGNELPPYRMGNLAIKKGWPSMMHTIWNNPEKYESYFMPGGWYVSGDSAYMDEEGYFWFQGRVDDVIMTSGERVGPFEVESKLVEHPAIAEAGVIGKPDPVRGEIIKAFIALREGFEPSDKLKEEIRLFVKQGLAAHAAPREIEFKDKLPKTRSGKIMRRVLKAWELNLPAGDLSTMED
modifications: acetyl-lysine at K549
notes: AMP-forming acetyl-CoA synthetase AcsA, Bacillus subtilis, UniProt P39062, acetylated at K549 by AcuA; Formed in the sample from m1 and m2 before the SEC run; K549 is the major acceptor site by the K549R control; also called AcsA AcK549; acetylated AcsA; source: E. coli BL21 (DE3), purified; acetylated in vitro by AcuA with acetyl-CoA, or with AcP and CoA
On to B5, for which the “stoichiometry N” value in data set [3] was 2.

Values taken from PMC11255334, “Acetyl-CoA synthetase activity is enzymatically regulated by lysine acetylation using acetyl-CoA or acetyl-phosphate as donor molecule” (Nature Communications, 2024).
